Source: article PMC12872464
Substitutions are numbered along the chain they refer to. Names and notes keep the numbering of the source.

B1: HA-tagged PPAP recombinant protein, isoform 2 (membrane protein), wild type (rPPAP-HA WT), P15309-2 N94A; N220A; N333A (protein)
chain: KELKFVTLVFRHGDRSPIDTFPTDPIKESSWPQGFGQLTQLGMEQHYELGEYIRKRYRKFLAESYKHEQVYIRSTDVDRTLMSAMTNLAALFPPEGVSIWNPILLWQPIPVHTVPLSEDQLLYLPFRNCPRFQELESETLKSEEFQKRLHPYKDFIATLGKLSGLHGQDLFGIWSKVYDPLYCESVHAFTLPSWATEDTMTKLRELSELSLLSLYGIHKQKEKSRLQGGVLVNEILNHMKRATQIPSYKKLIMYSAHDTTVSGLQMALDVYNGLLPPYASCHLTELYFEKGEYFVEMYYRAETQHEPYPLMLPGCSPSCPLERFAELVGPVIPQDWSTECMTTNSHQVLKVIFAVAFCLISAVLMVLLFIHIRRGLCWQRESYGNI
B2: HA-tagged PPAP recombinant protein, isoform 2 (membrane protein), wild type (rPPAP-HA WT), P15309-2 N333A (protein)
chain: B1 chain with A62N, A188N
B3: HA-tagged PPAP recombinant protein, isoform 2 (membrane protein), wild type (rPPAP-HA WT), P15309-2 N94A (protein)
chain: B1 chain with A188N, A301N
B4: HA-tagged PPAP recombinant protein, isoform 2 (membrane protein), wild type (rPPAP-HA WT), P15309-2 N220A; N333A (protein)
chain: B1 chain with A62N
B5: HA-tagged PPAP recombinant protein, isoform 2 (membrane protein), wild type (rPPAP-HA WT), P15309-2 N220A (protein)
chain: B1 chain with A62N, A301N
B6: HA-tagged PPAP recombinant protein, isoform 2 (membrane protein), wild type (rPPAP-HA WT), P15309-2 N94A; N333A (protein)
chain: MRAAPLLLARAASLSLGFLFLLFFWLDRSVLAKELKFVTLVFRHGDRSPIDTFPTDPIKESSWPQGFGQLTQLGMEQHYELGEYIRKRYRKFLAESYKHEQVYIRSTDVDRTLMSAMTNLAALFPPEGVSIWNPILLWQPIPVHTVPLSEDQLLYLPFRNCPRFQELESETLKSEEFQKRLHPYKDFIATLGKLSGLHGQDLFGIWSKVYDPLYCESVHNFTLPSWATEDTMTKLRELSELSLLSLYGIHKQKEKSRLQGGVLVNEILNHMKRATQIPSYKKLIMYSAHDTTVSGLQMALDVYNGLLPPYASCHLTELYFEKGEYFVEMYYRAETQHEPYPLMLPGCSPSCPLERFAELVGPVIPQDWSTECMTTNSHQGTEDSTD
B7: HA-tagged PPAP recombinant protein, isoform 2 (membrane protein), wild type (rPPAP-HA WT), P15309-2 N94A; N220A (protein)
chain: B6 chain with N220A, A333N

What follows are binders tested against recombinant lectin domain of FimH with FLAG tag (rFimHLD-FLAG), P08191 (assay: western blot quantification of rFimHLD-FLAG bound to rPPAP-HA). Settings: chain shown with the change; n = 3 biological replicates; parent: est. 1.0; read off a plot.
recombinant lectin domain of FimH with FLAG tag (rFimHLD-FLAG), P08191, sequence (P08191 22-156): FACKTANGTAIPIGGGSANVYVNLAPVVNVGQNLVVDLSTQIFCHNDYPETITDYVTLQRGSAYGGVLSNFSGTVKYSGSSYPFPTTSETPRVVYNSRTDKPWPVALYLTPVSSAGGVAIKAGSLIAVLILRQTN

Compared with B1, B2 is higher in ratio to parent: 0.36 for the first, 0.6 for the second.

Compared with B3, B4 is lower in ratio to parent: 0.78 for the first, 0.25 for the second.

First: B5
Second: B6
The ratio to parent of the first is higher: 0.68 for the first, 0.5 for the second.

Binder B7 has a ratio to parent of 0.53.

Each binder was assayed against full-length FimH adhesin on live WT UPEC UTI89 bacteria, P08191 (assay: binding array (rPPAP bound to glass slide, incubated with live bacteria)). Settings: chain shown with the change, with D-mannose, n = 3 biological replicates, parent: est. 18, read off a plot.
full-length FimH adhesin on live WT UPEC UTI89 bacteria, P08191, sequence (P08191 22-300): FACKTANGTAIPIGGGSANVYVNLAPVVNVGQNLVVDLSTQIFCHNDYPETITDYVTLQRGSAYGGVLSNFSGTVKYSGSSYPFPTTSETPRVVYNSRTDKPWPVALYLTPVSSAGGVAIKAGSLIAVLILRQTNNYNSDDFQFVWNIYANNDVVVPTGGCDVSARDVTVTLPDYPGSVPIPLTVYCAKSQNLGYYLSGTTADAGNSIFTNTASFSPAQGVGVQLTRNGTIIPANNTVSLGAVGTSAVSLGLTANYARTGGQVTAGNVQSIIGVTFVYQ

In the case of B1, the response (bacteria per field) is reported as 13.

Same assay, conditions: chain shown with the change, without D-mannose, n = 3 biological replicates, parent: est. 66, read off a plot

In the case of B1, the response (bacteria per field) is reported as 19.
